Measured values reported in US20240270846A1 (published 2024).

Target: T1, CD3 epsilon homodimer protein (UniProt P07766 23-126)
T1 construct: Construct of the homodimer is not described; also called CD3 (CD3 epsilon)
Test: SPR Biacore T200, CD3e homodimer on chip, antibody analyte;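 further: CD3 epsilon homodimer amine-coupled on CM4 sensor chip, antibodies injected as analyte at 25 °C in HBS-EP+, ratio ≥0.8 taken as binding retained versus unaltered parent antibody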

T1 sequence (P07766 23-126): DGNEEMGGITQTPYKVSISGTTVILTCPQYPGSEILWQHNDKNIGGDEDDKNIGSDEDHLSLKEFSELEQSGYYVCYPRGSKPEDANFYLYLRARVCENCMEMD

Binder	ratio of amounts bound (altered form/GLS3000)
GLS3000 T97P one-arm antibody (antibody, human IgG1, kappa, L234A L235A, N297A, name in Kabat numbering) light: DIVMTQSPLSLPVTPGEPASISCRSSQSLVHSNRNTYLHWYQQKPGQAPRLLIYKVSNRFSGVPDRFSGSGSGTDFTLKISRVEAEDVGVYYCGQGTQVPYPFGQGTKLEIKRTVAAPSVFIFPPSDEQLKSGTASVVCLLNNFYPREAKVQWKVDNALQSGNSQESVTEQDSKDSTYSLSSTLTLSKADYEKHKVYACEVTHQGLSSPVTKSFNRGEC heavy: QVQLVESGGGVVQPGRSLRLSCAASGFTFSNAWMHWVRQAPGKGLEWVAQIKAKSNNYATYYAESVKGRFTISRDDSKNSLYLQMNSLKTEDTAVYYCRYVHYGAYYGVDAWGQGTTVTVSSASTKGPSVFPLAPSSKSTSGGTAALGCLVKDYFPEPVTVSWNSGALTSGVHTFPAVLQSSGLYSLSSVVTVPSSSLGTQTYICNVNHKPSNTKVDKKVEPKSCDKTHTCPPCPAPEAAGGPSVFLFPPKPKDTLMISRTPEVTCVVVDVSHEDPEVKFNWYVDGVEVHNAKTKPREEQYASTYRVVSVLTVLHQDWLNGKEYKCKVSNKALPAPIEKTISKAKGQPREPQVYTLPPSRCELTKNQVSLSCAVKGFYPSDIAVEWESNGQPENNYKTTPPVLDSDGSFFLVSKLTVDKSRWQQGNVFSCSVMHEALHNHYTQKSLSLSPDYKDDDDK EPKSSDKTHTCPPCPAPELLGGPSVFLFPPKPKDTLMISRTPEVTCVVVDVSHEDPEVKFNWYVDGVEVHNAKTKPREEQYNSTYRVVSVLTVLHQDWLNGKEYKCKVSNKALPAPIEKTISKAKGQPREPQVCTLPPSRDELTKNQVSLWCLVKGFYPSDIAVEWESNGQPENNYKTTPPVLDSDGSFFLYSKLTVDKSRWQQGNVFSCSVMHEALHNRYTQKSLSLSP	0.31
GLS3000 V51E one-arm antibody (antibody, human IgG1, kappa, L234A L235A, N297A, name in Kabat numbering) light: DIVMTQSPLSLPVTPGEPASISCRSSQSLVHSNRNTYLHWYQQKPGQAPRLLIYKESNRFSGVPDRFSGSGSGTDFTLKISRVEAEDVGVYYCGQGTQVPYTFGQGTKLEIKRTVAAPSVFIFPPSDEQLKSGTASVVCLLNNFYPREAKVQWKVDNALQSGNSQESVTEQDSKDSTYSLSSTLTLSKADYEKHKVYACEVTHQGLSSPVTKSFNRGEC heavy: QVQLVESGGGVVQPGRSLRLSCAASGFTFSNAWMHWVRQAPGKGLEWVAQIKAKSNNYATYYAESVKGRFTISRDDSKNSLYLQMNSLKTEDTAVYYCRYVHYGAYYGVDAWGQGTTVTVSSASTKGPSVFPLAPSSKSTSGGTAALGCLVKDYFPEPVTVSWNSGALTSGVHTFPAVLQSSGLYSLSSVVTVPSSSLGTQTYICNVNHKPSNTKVDKKVEPKSCDKTHTCPPCPAPEAAGGPSVFLFPPKPKDTLMISRTPEVTCVVVDVSHEDPEVKFNWYVDGVEVHNAKTKPREEQYASTYRVVSVLTVLHQDWLNGKEYKCKVSNKALPAPIEKTISKAKGQPREPQVYTLPPSRCELTKNQVSLSCAVKGFYPSDIAVEWESNGQPENNYKTTPPVLDSDGSFFLVSKLTVDKSRWQQGNVFSCSVMHEALHNHYTQKSLSLSPDYKDDDDK EPKSSDKTHTCPPCPAPELLGGPSVFLFPPKPKDTLMISRTPEVTCVVVDVSHEDPEVKFNWYVDGVEVHNAKTKPREEQYNSTYRVVSVLTVLHQDWLNGKEYKCKVSNKALPAPIEKTISKAKGQPREPQVCTLPPSRDELTKNQVSLWCLVKGFYPSDIAVEWESNGQPENNYKTTPPVLDSDGSFFLYSKLTVDKSRWQQGNVFSCSVMHEALHNRYTQKSLSLSP	0.64
GLS3000 V51G one-arm antibody (antibody, human IgG1, kappa, L234A L235A, N297A, name in Kabat numbering) light: DIVMTQSPLSLPVTPGEPASISCRSSQSLVHSNRNTYLHWYQQKPGQAPRLLIYKGSNRFSGVPDRFSGSGSGTDFTLKISRVEAEDVGVYYCGQGTQVPYTFGQGTKLEIKRTVAAPSVFIFPPSDEQLKSGTASVVCLLNNFYPREAKVQWKVDNALQSGNSQESVTEQDSKDSTYSLSSTLTLSKADYEKHKVYACEVTHQGLSSPVTKSFNRGEC heavy: QVQLVESGGGVVQPGRSLRLSCAASGFTFSNAWMHWVRQAPGKGLEWVAQIKAKSNNYATYYAESVKGRFTISRDDSKNSLYLQMNSLKTEDTAVYYCRYVHYGAYYGVDAWGQGTTVTVSSASTKGPSVFPLAPSSKSTSGGTAALGCLVKDYFPEPVTVSWNSGALTSGVHTFPAVLQSSGLYSLSSVVTVPSSSLGTQTYICNVNHKPSNTKVDKKVEPKSCDKTHTCPPCPAPEAAGGPSVFLFPPKPKDTLMISRTPEVTCVVVDVSHEDPEVKFNWYVDGVEVHNAKTKPREEQYASTYRVVSVLTVLHQDWLNGKEYKCKVSNKALPAPIEKTISKAKGQPREPQVYTLPPSRCELTKNQVSLSCAVKGFYPSDIAVEWESNGQPENNYKTTPPVLDSDGSFFLVSKLTVDKSRWQQGNVFSCSVMHEALHNHYTQKSLSLSPDYKDDDDK EPKSSDKTHTCPPCPAPELLGGPSVFLFPPKPKDTLMISRTPEVTCVVVDVSHEDPEVKFNWYVDGVEVHNAKTKPREEQYNSTYRVVSVLTVLHQDWLNGKEYKCKVSNKALPAPIEKTISKAKGQPREPQVCTLPPSRDELTKNQVSLWCLVKGFYPSDIAVEWESNGQPENNYKTTPPVLDSDGSFFLYSKLTVDKSRWQQGNVFSCSVMHEALHNRYTQKSLSLSP	0.84
GLS3000 V51I one-arm antibody (antibody, human IgG1, kappa, L234A L235A, N297A, name in Kabat numbering) light: DIVMTQSPLSLPVTPGEPASISCRSSQSLVHSNRNTYLHWYQQKPGQAPRLLIYKISNRFSGVPDRFSGSGSGTDFTLKISRVEAEDVGVYYCGQGTQVPYTFGQGTKLEIKRTVAAPSVFIFPPSDEQLKSGTASVVCLLNNFYPREAKVQWKVDNALQSGNSQESVTEQDSKDSTYSLSSTLTLSKADYEKHKVYACEVTHQGLSSPVTKSFNRGEC heavy: QVQLVESGGGVVQPGRSLRLSCAASGFTFSNAWMHWVRQAPGKGLEWVAQIKAKSNNYATYYAESVKGRFTISRDDSKNSLYLQMNSLKTEDTAVYYCRYVHYGAYYGVDAWGQGTTVTVSSASTKGPSVFPLAPSSKSTSGGTAALGCLVKDYFPEPVTVSWNSGALTSGVHTFPAVLQSSGLYSLSSVVTVPSSSLGTQTYICNVNHKPSNTKVDKKVEPKSCDKTHTCPPCPAPEAAGGPSVFLFPPKPKDTLMISRTPEVTCVVVDVSHEDPEVKFNWYVDGVEVHNAKTKPREEQYASTYRVVSVLTVLHQDWLNGKEYKCKVSNKALPAPIEKTISKAKGQPREPQVYTLPPSRCELTKNQVSLSCAVKGFYPSDIAVEWESNGQPENNYKTTPPVLDSDGSFFLVSKLTVDKSRWQQGNVFSCSVMHEALHNHYTQKSLSLSPDYKDDDDK EPKSSDKTHTCPPCPAPELLGGPSVFLFPPKPKDTLMISRTPEVTCVVVDVSHEDPEVKFNWYVDGVEVHNAKTKPREEQYNSTYRVVSVLTVLHQDWLNGKEYKCKVSNKALPAPIEKTISKAKGQPREPQVCTLPPSRDELTKNQVSLWCLVKGFYPSDIAVEWESNGQPENNYKTTPPVLDSDGSFFLYSKLTVDKSRWQQGNVFSCSVMHEALHNRYTQKSLSLSP	0.81
GLS3000 V51P one-arm antibody (antibody, human IgG1, kappa, L234A L235A, N297A, name in Kabat numbering) light: DIVMTQSPLSLPVTPGEPASISCRSSQSLVHSNRNTYLHWYQQKPGQAPRLLIYKPSNRFSGVPDRFSGSGSGTDFTLKISRVEAEDVGVYYCGQGTQVPYTFGQGTKLEIKRTVAAPSVFIFPPSDEQLKSGTASVVCLLNNFYPREAKVQWKVDNALQSGNSQESVTEQDSKDSTYSLSSTLTLSKADYEKHKVYACEVTHQGLSSPVTKSFNRGEC heavy: QVQLVESGGGVVQPGRSLRLSCAASGFTFSNAWMHWVRQAPGKGLEWVAQIKAKSNNYATYYAESVKGRFTISRDDSKNSLYLQMNSLKTEDTAVYYCRYVHYGAYYGVDAWGQGTTVTVSSASTKGPSVFPLAPSSKSTSGGTAALGCLVKDYFPEPVTVSWNSGALTSGVHTFPAVLQSSGLYSLSSVVTVPSSSLGTQTYICNVNHKPSNTKVDKKVEPKSCDKTHTCPPCPAPEAAGGPSVFLFPPKPKDTLMISRTPEVTCVVVDVSHEDPEVKFNWYVDGVEVHNAKTKPREEQYASTYRVVSVLTVLHQDWLNGKEYKCKVSNKALPAPIEKTISKAKGQPREPQVYTLPPSRCELTKNQVSLSCAVKGFYPSDIAVEWESNGQPENNYKTTPPVLDSDGSFFLVSKLTVDKSRWQQGNVFSCSVMHEALHNHYTQKSLSLSPDYKDDDDK EPKSSDKTHTCPPCPAPELLGGPSVFLFPPKPKDTLMISRTPEVTCVVVDVSHEDPEVKFNWYVDGVEVHNAKTKPREEQYNSTYRVVSVLTVLHQDWLNGKEYKCKVSNKALPAPIEKTISKAKGQPREPQVCTLPPSRDELTKNQVSLWCLVKGFYPSDIAVEWESNGQPENNYKTTPPVLDSDGSFFLYSKLTVDKSRWQQGNVFSCSVMHEALHNRYTQKSLSLSP	0.32
GLS3000 V94D one-arm antibody (antibody, human IgG1, kappa, L234A L235A, N297A, name in Kabat numbering) light: DIVMTQSPLSLPVTPGEPASISCRSSQSLVHSNRNTYLHWYQQKPGQAPRLLIYKVSNRFSGVPDRFSGSGSGTDFTLKISRVEAEDVGVYYCGQGTQDPYTFGQGTKLEIKRTVAAPSVFIFPPSDEQLKSGTASVVCLLNNFYPREAKVQWKVDNALQSGNSQESVTEQDSKDSTYSLSSTLTLSKADYEKHKVYACEVTHQGLSSPVTKSFNRGEC heavy: QVQLVESGGGVVQPGRSLRLSCAASGFTFSNAWMHWVRQAPGKGLEWVAQIKAKSNNYATYYAESVKGRFTISRDDSKNSLYLQMNSLKTEDTAVYYCRYVHYGAYYGVDAWGQGTTVTVSSASTKGPSVFPLAPSSKSTSGGTAALGCLVKDYFPEPVTVSWNSGALTSGVHTFPAVLQSSGLYSLSSVVTVPSSSLGTQTYICNVNHKPSNTKVDKKVEPKSCDKTHTCPPCPAPEAAGGPSVFLFPPKPKDTLMISRTPEVTCVVVDVSHEDPEVKFNWYVDGVEVHNAKTKPREEQYASTYRVVSVLTVLHQDWLNGKEYKCKVSNKALPAPIEKTISKAKGQPREPQVYTLPPSRCELTKNQVSLSCAVKGFYPSDIAVEWESNGQPENNYKTTPPVLDSDGSFFLVSKLTVDKSRWQQGNVFSCSVMHEALHNHYTQKSLSLSPDYKDDDDK EPKSSDKTHTCPPCPAPELLGGPSVFLFPPKPKDTLMISRTPEVTCVVVDVSHEDPEVKFNWYVDGVEVHNAKTKPREEQYNSTYRVVSVLTVLHQDWLNGKEYKCKVSNKALPAPIEKTISKAKGQPREPQVCTLPPSRDELTKNQVSLWCLVKGFYPSDIAVEWESNGQPENNYKTTPPVLDSDGSFFLYSKLTVDKSRWQQGNVFSCSVMHEALHNRYTQKSLSLSP	0.89
